According to PMC10011724:

Molecular target: Flag-tagged BPGAP1
Experiment: co-immunoprecipitation (anti-Flag M2 beads) with immunoblot quantification
Details: HEK293T cell lysates; three independent experiments; parent: est. 1.0; read off a plot

Row | ratio to parent [fold change] | Substance
1 | 0.72 | HA-tagged Rac1, wild-type (WT) (from UniProt P63000) G12V
2 | 2.2 | HA-tagged Rac1, wild-type (WT) (from UniProt P63000) T17N
